# Assays:
# [1] = Aggregation / sample stability of purified PDZ2 constructs; type: physicochemical
# Source text: The biochemical behavior of PDZD7 PDZ2 drastically differs from PDZ1, with or without its C-terminal extension. […] In order to further establish the accessible folding states of the PDZ2 extension, we used the same metadynamics approach as for PDZ1ext and probed its conformational energy landscape (Figure 3C).
# [2] = Degradation of PDZD7-GFP variants expressed in HeLa cells; settings: western blot, compared to the wild-type
# Method: HeLa cells were maintained in Dulbecco’s modified Eagle’s medium (DMEM) containing 10% fetal calf serum (FCS). PDZD7 constructs correspond to the full-length murine sequence in fusion with a N-terminal strep tag and a C-terminal GFP, wild-type or carrying G103R/G228R variants, cloned in a PMT3 vector. The ADGRV1 construct corresponds to the murine β subunit of the receptor (5884-6298) cloned in a pRK5 vector. Plasmids were transfected in separate HeLa cultures using 25 μg (PDZD7) and 10 μg (ADGRV1) of DNA per 10 cm dish using TurboFect™ Transfection Reagent (ThermoFisher Scientific) at 3 μl per μg of transfected DNA. Mixes were prepared in volumes of 1 ml/plate (in DMEM), vortexed and incubated up to 30 min at room temperature, cell media were renewed before transfection. After drop by drop addition of the transfection mix, cells were maintained at 37°C for 14 h for protein expression. […] Cells were counted, pelleted and resuspended at similar concentrations in PBS Tween 0.01%, Dodécyl-β-D-maltoside (DDM) 0.1% containing anti-proteases (buffer). […] Target proteins were detected using mouse α-GFP (LivingColors™ JL-8, Takara) and rabbit α-ADGRV1 (custom, raised against the cytoplasmic domain) antibodies (1/2000 in 5% milk TBST), as well as secondary α-mouse and α-rabbit IgG antibodies coupled to HRP (1/2000 in 5% milk TBST). […]
# ADGRV1 β subunit = experiment: Pull-down of ADGRV1 β subunit by full-length PDZD7-GFP from HeLa cell lysates; type: binding, murine; settings: PDZD7-GFP bait, anti-GFP beads, 4°C 1 h, western blot, vs no bait
# Method: HeLa cells were maintained in Dulbecco’s modified Eagle’s medium (DMEM) containing 10% fetal calf serum (FCS). PDZD7 constructs correspond to the full-length murine sequence in fusion with a N-terminal strep tag and a C-terminal GFP, wild-type or carrying G103R/G228R variants, cloned in a PMT3 vector. The ADGRV1 construct corresponds to the murine β subunit of the receptor (5884-6298) cloned in a pRK5 vector. Plasmids were transfected in separate HeLa cultures using 25 μg (PDZD7) and 10 μg (ADGRV1) of DNA per 10 cm dish using TurboFect™ Transfection Reagent (ThermoFisher Scientific) at 3 μl per μg of transfected DNA. Mixes were prepared in volumes of 1 ml/plate (in DMEM), vortexed and incubated up to 30 min at room temperature, cell media were renewed before transfection. After drop by drop addition of the transfection mix, cells were maintained at 37°C for 14 h for protein expression. Cells were dissociated using Gibco™ Trypsine-EDTA (0,05%), subsequently inactivated by addition of DMEM containing 10% FCS. Cells were counted, pelleted and resuspended at similar concentrations in PBS Tween 0.01%, Dodécyl-β-D-maltoside (DDM) 0.1% containing anti-proteases (buffer). Benzonase (Sigma) was added before sonication of the cells (40 mA amplitude, 10 pulses of 12 s with 18 s intervals, in ice). An identical volume of ADGRV1 β transfected cell lysate was mixed to either PDZD7 WT, G103R or G228R transfected cell lysates. PDZ proteins have different expression levels, meaning that different amounts of sample are needed to saturate the dynabeads with the PDZ proteins. Pull down experiments have been performed several times allowing us to estimate the yield of expression of each PDZ construct for a given amount of cells. […] Target proteins were detected using mouse α-GFP (LivingColors™ JL-8, Takara) and rabbit α-ADGRV1 (custom, raised against the cytoplasmic domain) antibodies (1/2000 in 5% milk TBST), as well as secondary α-mouse and α-rabbit IgG antibodies coupled to HRP (1/2000 in 5% milk TBST). […]
Molecule,"sample stability ([1]; 15N-labelled PDZ2 constructs, NMR)","aggregation ([1]; at temperatures higher than 15 °C, despite extensive screening of buffer conditions)","aggregation ([1]; during biophysical experiments, low yield)",degradation [2],binding of ADGRV1 β subunit (pull-down) (ADGRV1 β subunit)
"PDZ2: second PDZ of mouse PDZD7 (G206 to G292) (protein, left off: GST, N-terminal, cleaved) GVRRIVHLYTTSDDFCLGFNIRGGKEFGLGIYVSKVDHGGLAEENGIKVGDQVLAANGVRFDDISHSQAVEVLKGQTHIMLTIKETG",stable for a few hours only,Rapid aggregation,–,–,–
"PDZ2 G228R: PDZD7 PDZ2 carrying deafness-causing mutation G228R (protein, UniProt E9Q9W7 206-292, looked up, variant G228R) GVRRIVHLYTTSDDFCLGFNIRRGKEFGLGIYVSKVDHGGLAEENGIKVGDQVLAANGVRFDDISHSQAVEVLKGQTHIMLTIKETG",–,–,severe aggregation,–,–
"G103R: full-length murine PDZD7-GFP carrying G103R variant (protein, UniProt E9Q9W7 1-1021, looked up, variant G103R, full-length C-terminal GFP fusion, full-length murine PDZD7-GFP carrying G103R variant) MARGFTVGFDPLGLGELSSGSLSSVSSRGHLGSDSGSTATRYLLRKQQRLLNGPSRGIRASSPMGRVILINSPIEANSDESDIIHAVRVEKSPSGRLGFSVRRGSEHGLGIFVSKVEEGSSAERAGLCVGDKITEVNGLSLESTTMGSAVRLLTSSSCLHMMVRRMGRVPGIKFSKEKTTWVDVVNRRLVVEKCSSTPSDRSSEDGVRRIVHLYTTSDDFCLGFNIRGGKEFGLGIYVSKVDHGGLAEENGIKVGDQVLAANGVRFDDISHSQAVEVLKGQTHIMLTIKETGRYPAYKEMVSEYCWLDRLSNGVLQQLSPASESSSSVSSYASSAPCSSGSLPSDRMDVCLGPEEPTSHGPGWGRADTAMQTEPDLDSRVETWCSVRPTVILRDTAIRSDGPSSTRHLDSALSESPKTALLLALSRPRTPITRSQSHLTLWEEKKQRKKEKSGSSGEKGALQRSKTLMNLFFKGGRQGRPAGDGHREAWTLDSRSPTKVRPRLDLEKAGSVGPVQKFVTWRLRRDRERGRALLSARSGSPSGQAPTVNEQVQAWESRRPLIQDLARRLLTDDEVLAVTRHCSRYVHEGGVEDLVRPLLAILDRPTKLLLLRDIRSVVAPTDLGRFDSMVMPVELEAFEALKSRAVGPSALRPTRQDTPPKRHLITPVPDSRGGFYLLPVNSSEDEDGEIREKLGVLKVSLGASAPHHKGIPPLQDVPVDAFSLRRGACAPPPQPPPVAPRPPRPNWLLTEPLSREDTQQNQSQTPAQSCSRSRSRSRSRSHSRGQGKSPGRRRSPSPAPIATAATANGRYHRPRKARPLLPRLLDGQVAKVGARQGPLENGRIAEEAVGNVSTGALRTITLSKMKQSLGISISGGIESKVQPMVKIEKIFPGGAAFLCGDLQAGFELVAVDGESLEQVTHQRAVDTIRRAYRNKAREPMELVVRVPGPGLLPLASDLRVVKDQSLAPDCPSALGPVDDARILTQLPPPEARQLQQSLSSALKVPQSIPKLSPILKDPHDPS",–,–,–,higher tendency for degradation,"a decrease of ADGRV1 quantity bound to the beads was observed in comparison with wild-type PDZD7, similar to the experiment performed without bait"
"G228R: full-length murine PDZD7-GFP carrying G228R variant (protein, UniProt E9Q9W7 1-1021, looked up, variant G228R, full-length C-terminal GFP fusion, full-length murine PDZD7-GFP carrying G228R variant) MARGFTVGFDPLGLGELSSGSLSSVSSRGHLGSDSGSTATRYLLRKQQRLLNGPSRGIRASSPMGRVILINSPIEANSDESDIIHAVRVEKSPSGRLGFSVRGGSEHGLGIFVSKVEEGSSAERAGLCVGDKITEVNGLSLESTTMGSAVRLLTSSSCLHMMVRRMGRVPGIKFSKEKTTWVDVVNRRLVVEKCSSTPSDRSSEDGVRRIVHLYTTSDDFCLGFNIRRGKEFGLGIYVSKVDHGGLAEENGIKVGDQVLAANGVRFDDISHSQAVEVLKGQTHIMLTIKETGRYPAYKEMVSEYCWLDRLSNGVLQQLSPASESSSSVSSYASSAPCSSGSLPSDRMDVCLGPEEPTSHGPGWGRADTAMQTEPDLDSRVETWCSVRPTVILRDTAIRSDGPSSTRHLDSALSESPKTALLLALSRPRTPITRSQSHLTLWEEKKQRKKEKSGSSGEKGALQRSKTLMNLFFKGGRQGRPAGDGHREAWTLDSRSPTKVRPRLDLEKAGSVGPVQKFVTWRLRRDRERGRALLSARSGSPSGQAPTVNEQVQAWESRRPLIQDLARRLLTDDEVLAVTRHCSRYVHEGGVEDLVRPLLAILDRPTKLLLLRDIRSVVAPTDLGRFDSMVMPVELEAFEALKSRAVGPSALRPTRQDTPPKRHLITPVPDSRGGFYLLPVNSSEDEDGEIREKLGVLKVSLGASAPHHKGIPPLQDVPVDAFSLRRGACAPPPQPPPVAPRPPRPNWLLTEPLSREDTQQNQSQTPAQSCSRSRSRSRSRSHSRGQGKSPGRRRSPSPAPIATAATANGRYHRPRKARPLLPRLLDGQVAKVGARQGPLENGRIAEEAVGNVSTGALRTITLSKMKQSLGISISGGIESKVQPMVKIEKIFPGGAAFLCGDLQAGFELVAVDGESLEQVTHQRAVDTIRRAYRNKAREPMELVVRVPGPGLLPLASDLRVVKDQSLAPDCPSALGPVDDARILTQLPPPEARQLQQSLSSALKVPQSIPKLSPILKDPHDPS",–,–,–,higher tendency for degradation,"a decrease of ADGRV1 quantity bound to the beads was observed in comparison with wild-type PDZD7, similar to the experiment performed without bait"

# Reference: PMC9274004, “Deciphering the Molecular Interaction Between the Adhesion G Protein-Coupled Receptor ADGRV1 and its PDZ-Containing Regulator PDZD7” (Frontiers in Molecular Biosciences, 2022)
